Data set [1] deals with T1, UAF (Rrn5-Rrn9-Rrn10-Uaf30-H3-H4) (Saccharomyces cerevisiae? (budding …, UniProt Q02983;P53437;P38204;Q08747;P61830;P02309 1-363;1-365;1-145;1-228;1-136;1-103)). Nature of the data set: filter binding; two repeats; text assigns tight Kd to -110/-40, fig. S7 legend order of the DNAs appears swapped; 30 mM Hepes-NaOH pH 7.5, 30 mM sodium citrate pH 6.0, 250 mM KCl, 2 mM DTT; filter binding 1 h at 4 C; footprinting on ice, then 2.5 mM MgCl2, 0.5 mM CaCl2, DNa.

Data set [2] addresses T1, UAF (Rrn5-Rrn9-Rrn10-Uaf30-H3-H4). Nature of the data set: filter binding; fitted Kd only in figure; legend order of the DNAs appears swapped; 30 mM Hepes-NaOH pH 7.5, 30 mM sodium citrate pH 6.0, 250 mM KCl, 2 mM DTT; filter binding 1 h at 4 C; footprinting on ice, then 2.5 mM MgCl2, 0.5 mM CaCl2, DNa.

B1: DNA-110/-40 (downstream) (dsDNA)
DNA 1: AGAGCGACAGAGAGGGCAAAAGAAAATAAAAGTAAGATTTTAGTTTGTAATGGGAGGGGGGGTTTAGTCAT
DNA 2: ATGACTAAACCCCCCCTCCCATTACAAACTAAAATCTTACTTTTATTTTCTTTTGCCCTCTCTGTCGCTCT
A word on the Kd: it is the equilibrium constant for the complex coming apart. With B1, in data set [1], the Kd came out at 20.4 nM.

B2: DNA-180/-110 (upstream) (dsDNA)
DNA 1: ATATACGCTAAGATTTTTGGAGAATAGCTTAAATTGAAGTTTTTCTCGGCGAGAAATACGTAGTTAAGGCA
DNA 2: TGCCTTAACTACGTATTTCTCGCCGAGAAAAACTTCAATTTAAGCTATTCTCCAAAAATCTTAGCGTATAT
On to B2, for which the “fold decrease in affinity” value in data set [2] is ~5 fold lower affinity than DNA-110/-40.

(Values after article PMC9020658, “Mechanism of RNA polymerase I selection by transcription factor UAF”.)
